{"source": "the supplement of paper PMC10201428", "key": {"[1]": {"test_system": "VchCAST RNA-guided transposition machinery (E. coli BL21(DE3) host, lacZ target)", "assay": "relative integration efficiency (T-LR orientation) vs wild-type transposon end (log2 (normalized fold change)); transposon end mutated: left end; higher = more efficient transposition", "how_it_was_run": "(§1)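 Barcode abundances in input plasmids and in genomic integration junctions were obtained by PCR amplification and Illumina sequencing. These came from E. coli BL21(DE3) co-transformed with a T7-driven effector plasmid and a pUC57 donor carrying 1549 left-end or 1849 right-end transposon variants, then plated with 0.1 mM IPTG at 37°C for 18 h. Relative integration efficiency is the output/input fold change, normalised to reference barcodes and log-transformed.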"}, "[2]": {"test_system": "VchCAST RNA-guided transposition machinery (E. coli BL21(DE3) host, lacZ target)", "assay": "relative integration efficiency (T-RL orientation) vs wild-type transposon end (log2 (normalized fold change)); transposon end mutated: left end; higher = more efficient transposition", "how_it_was_run": "as §1"}}, "note": "± gives the standard deviation of the averaged measurements."}
{"sequence": "AATGTTGTTGATGCAACCATAAAGTGTATAAATATAATTATTTATAATCAGCAACTTAACCACAAAACAACCATATATTGTATAGAGACAAAACAACCATAAGTTGTATAAAATGTGAATCGAGTATTTCAGCAAAACTACTGCAGTAAGAA", "values": [{"measurement": "relative integration efficiency (log2)", "setting": "[1]", "result": "-3.62 ± 1.7"}, {"measurement": "relative integration efficiency (log2)", "setting": "[2]", "result": "-4.69 ± 1.2"}]}
{"sequence": "AATGTTGTTGATGCAACCATAAAGTGATATTTAATAATTATTTATAATCAGCAACTTAACCACAAAACAACCATATATTGATATCTCACAAAACAACCATAAGTTGCGCGGGGGTGTCCGATCTGATTTCAGCAAAACTACTGCAGTAAGAA", "values": [{"measurement": "relative integration efficiency (log2)", "setting": "[1]", "result": "-3.15 ± 1.6"}, {"measurement": "relative integration efficiency (log2)", "setting": "[2]", "result": "-1.74 ± 0.81"}]}
{"sequence": "AATGTTGTTGATGCAACCATAAAATGATAATTAATAATTATTTATAATCAGCAACTTAACCACAAAACACCCATAAATTGATAATTAACAAAAGTTGGTATTCAACTATAAAATGTGAATCGAGTATTTCAGCAAAACTACTGCAGTAAGAA", "values": [{"measurement": "relative integration efficiency (log2)", "setting": "[1]", "result": "-0.121 ± 0.44"}, {"measurement": "relative integration efficiency (log2)", "setting": "[2]", "result": "-2.02 ± 1.1"}]}
{"sequence": "AATGTTGTTGATGCAACCATAAAGTGATATTTAATAATTATTGCGCCGACTACCAGGCCAACACCCCACCAACGCGCGGTCGCGAGACACCCCACCAACGCCTGGTCGCGGGGGTGTCCGATCTGATTTCAGCAAAACTACTGCAGTAAGAA", "values": [{"measurement": "relative integration efficiency (log2)", "setting": "[1]", "result": "-5.68 ± 3.3"}, {"measurement": "relative integration efficiency (log2)", "setting": "[2]", "result": "-6.73 ± 0.58"}]}
{"sequence": "AATGTTGTTGATGCAACCATAAAGTGATATTTAATAATTATTTATAATCAGCAACTTACAACCATATATTGATATCTCACAAAACAACCATAAGTTGATATTTTTGTGAATCGAGTATTTCAGCAAAACTACTGCAGTAAGAAAGTTACTTC", "values": [{"measurement": "relative integration efficiency (log2)", "setting": "[1]", "result": "-0.998 ± 0.78"}, {"measurement": "relative integration efficiency (log2)", "setting": "[2]", "result": "-0.809 ± 0.49"}]}
{"sequence": "AATGTTGTTGATGCAACCATAAAGTGATATTTAATAACAACCATATATTGATATCTCACAAAACAACCATAAGTTGATATTTTTGTGAATCGAGTATTTCAGCAAAACTACTGCAGTAAGAAAGTTACTTCGTGGTATGGGAGGATCAAGGA", "values": [{"measurement": "relative integration efficiency (log2)", "setting": "[1]", "result": "-3.02 ± 1.5"}, {"measurement": "relative integration efficiency (log2)", "setting": "[2]", "result": "-5.54 ± 1.1"}]}
{"sequence": "AATGTTGTTGATGCAACCATAAAGTGATATTTACACGAAGTGGCAACTGCCGTGCTGGCGTGCGATGCAACCATATATTGATATCTCACAAAACAACCATAAGTTGATATTTTTGTGAATCGAGTATTTCAGCAAAACTACTGCAGTAAGAA", "values": [{"measurement": "relative integration efficiency (log2)", "setting": "[1]", "result": "0.496 ± 0.1"}, {"measurement": "relative integration efficiency (log2)", "setting": "[2]", "result": "-2.73 ± 0.84"}]}
{"sequence": "AATGTTGTTGATGCAACCATAAGTTGATATTTTATAATTATTTATAATCAGCAACTTAACCACAAAACACCCATAAATTGATAATTAACAAAAGTTGGTATTCAACTATAAAATGTGAATCGAGTATTTCAGCAAAACTACTGCAGTAAGAA", "values": [{"measurement": "relative integration efficiency (log2)", "setting": "[1]", "result": "-0.777 ± 0.9"}, {"measurement": "relative integration efficiency (log2)", "setting": "[2]", "result": "-2.37 ± 1.2"}]}
{"sequence": "AATGTTGTTGATGCAACCATAAAGTGATATTTAATAATTATTTATAATCAGCAACTTAACCACACAACCATATATTGATATCTCAAAACAAAACAACCATAAGTTGATATTTTTGTGAATCGAGTATTTCAGCAAAACTACTGCAGTAAGAA", "values": [{"measurement": "relative integration efficiency (log2)", "setting": "[1]", "result": "-3.44 ± 2.9"}, {"measurement": "relative integration efficiency (log2)", "setting": "[2]", "result": "-2.19 ± 0.45"}]}
{"sequence": "AATGTTGTTGATGCAACCATAAAGTGATATTTAATAATTATTTATAATCAGCAACTTAACCACAAAACAACCATATAGGTCGCGAGACACCCCACCAACGCCTGGTCGCGGGGGTGTCCGATCTGATTTCAGCAAAACTACTGCAGTAAGAA", "values": [{"measurement": "relative integration efficiency (log2)", "setting": "[1]", "result": "-3.44 ± 0.57"}, {"measurement": "relative integration efficiency (log2)", "setting": "[2]", "result": "-5.2 ± 1.6"}]}
{"sequence": "AATGTTGTTGATGCAACCATAAAGTGATATTTAATAATTAGGGCGCCGACTACCAGGCCAACACCCCACCAACGCGCGGTCGCGAGACACCCCACCAACGCCTGGTCGCGGGGGTGTCCGATCTGATTTCAGCAAAACTACTGCAGTAAGAA", "values": [{"measurement": "relative integration efficiency (log2)", "setting": "[1]", "result": "-4.57 ± 0.92"}, {"measurement": "relative integration efficiency (log2)", "setting": "[2]", "result": "-7.07 ± 0.66"}]}
{"sequence": "AATGTTGTTGATGCAACCATAAAGTGATATTTAATAATTATTTATAATCAGCAACTTAACCACAAAACAACCATATATTGATATCTCACAAAACCCAACGCCTGGTCGCGGGGGTGTCCGATCTGATTTCAGCAAAACTACTGCAGTAAGAA", "values": [{"measurement": "relative integration efficiency (log2)", "setting": "[1]", "result": "-0.934 ± 0.6"}, {"measurement": "relative integration efficiency (log2)", "setting": "[2]", "result": "-2.31 ± 0.93"}]}
{"sequence": "AATGTTGTTGATGCAACCATAAAGTGATATTTAAGTACTGCGCGTCTGAAGTCATCTTTAAACCGAACAACCATATATTGATATCTCACAAAACAACCATAAGTTGATATTTTTGTGAATCGAGTATTTCAGCAAAACTACTGCAGTAAGAA", "values": [{"measurement": "relative integration efficiency (log2)", "setting": "[1]", "result": "-3.06 ± 1.1"}, {"measurement": "relative integration efficiency (log2)", "setting": "[2]", "result": "-3.55 ± 0.95"}]}
{"sequence": "AATGTTGTTGATGCAACCATAAAGTGATATTTAAGCTATACTCTAGGTATCTAACTTGTCCCATTGCCAACCATATATTGATATCTCACAAAACAACCATAAGTTGATATTTTTGTGAATCGAGTATTTCAGCAAAACTACTGCAGTAAGAA", "values": [{"measurement": "relative integration efficiency (log2)", "setting": "[1]", "result": "-3.91 ± 1.4"}, {"measurement": "relative integration efficiency (log2)", "setting": "[2]", "result": "-4.82 ± 1.4"}]}
{"sequence": "AATGTTGTTGATGCAACCATATATTGATATCTCATAATTATTTATAATCAGCAACTTAACCACAAAACACCCATAAATTGATATTGCACAAAAGTTGGTATTCAACTATAAAATGTGAATCGAGTATTTCAGCAAAACTACTGCAGTAAGAA", "values": [{"measurement": "relative integration efficiency (log2)", "setting": "[1]", "result": "-2.2 ± 1.6"}, {"measurement": "relative integration efficiency (log2)", "setting": "[2]", "result": "-4.07 ± 1.2"}]}
{"sequence": "AATGTTGTTGATGCAACCATAAAGTGATATTTAATAATTATTTATAATCAGCAACTTAACCACAAACAACCATATATTGATATCTCACAAAACAACCATAAGTTGATATTTTTGTGAATCGAGTATTTCAGCAAAACTACTGCAGTAAGAAA", "values": [{"measurement": "relative integration efficiency (log2)", "setting": "[1]", "result": "-0.356 ± 0.049"}, {"measurement": "relative integration efficiency (log2)", "setting": "[2]", "result": "-0.248 ± 0.24"}]}
{"sequence": "AATGTTGTTGATGCAACCATATATTGATATCTCATAATTATTTATAATCAGCAACTTAACCACAAAACACCCATAAATTGATAATTAACAAAAGTTGGTATTCAACTATAAAATGTGAATCGAGTATTTCAGCAAAACTACTGCAGTAAGAA", "values": [{"measurement": "relative integration efficiency (log2)", "setting": "[1]", "result": "-1.08 ± 1.5"}, {"measurement": "relative integration efficiency (log2)", "setting": "[2]", "result": "-3.56 ± 1.4"}]}
{"sequence": "AATGTTGTTGATGCAACCATAAAGTGATATTTAATAATTATTTATAATCAGCAACTTAACCACAAAACAACCATATATTGATATCTCACAACAACCATAAGTTGATATTTTTGTGAATCGAGTATTTCAGCAAAACTACTGCAGTAAGAAAG", "values": [{"measurement": "relative integration efficiency (log2)", "setting": "[1]", "result": "-1.51 ± 0.32"}, {"measurement": "relative integration efficiency (log2)", "setting": "[2]", "result": "-3.43 ± 0.95"}]}
{"sequence": "AATGTTGTTGAAACAACCATAAAGTGATAACAACGAATCAATTAAAATCATAGGCTTAATCGAAAAACAACCATATCTTGATATCGCATAAAACAACCATAAGTTGATATTTTTGTGAATCGAGTATTTCAGCAAAACTACTGCAGTAAGAA", "values": [{"measurement": "relative integration efficiency (log2)", "setting": "[1]", "result": "-0.327 ± 0.31"}, {"measurement": "relative integration efficiency (log2)", "setting": "[2]", "result": "-0.424 ± 0.24"}]}
{"sequence": "AATGTTGTTGATGCAACCATAAAGTGATATTTAATAATTATTTATAATCAGCAACTTAACCACAAAACAACCATATATTGATATCTCACAAAACAACCATAAGTTGATATTGGGTGTCCGATCTGATTTCAGCAAAACTACTGCAGTAAGAA", "values": [{"measurement": "relative integration efficiency (log2)", "setting": "[1]", "result": "-0.651 ± 0.46"}, {"measurement": "relative integration efficiency (log2)", "setting": "[2]", "result": "-0.13 ± 0.053"}]}
{"sequence": "AATGTTGTTGATGCAACCATAAAGTGATATTTAATAATTATTTATAATCAGCAACTTAACCACAAAACAACCATATATTGATATCTCACAAAACAACCAGCCTGGTCGCGGGGGTGTCCGATCTGATTTCAGCAAAACTACTGCAGTAAGAA", "values": [{"measurement": "relative integration efficiency (log2)", "setting": "[1]", "result": "-0.68 ± 0.94"}, {"measurement": "relative integration efficiency (log2)", "setting": "[2]", "result": "-2.22 ± 0.9"}]}
{"sequence": "AATGTTGTTGATGCAACCATAAAGTGATATTTAATACAACCATAAAGTGATATTTAACTTAACCACACAACCATATATTGATATCTCACAAAACAACCATAAGTTGATATTTTTGTGAATCGAGTATTTCAGCAAAACTACTGCAGTAAGAA", "values": [{"measurement": "relative integration efficiency (log2)", "setting": "[1]", "result": "-3.38 ± 1.9"}, {"measurement": "relative integration efficiency (log2)", "setting": "[2]", "result": "-5.26 ± 0.97"}]}
